{"source": "patent US20110070235A1", "key": {"M2e": {"target": "M2e", "assay": "peptide ELISA, mAb 5 ug/mL"}, "[1]": {"target": "M2 protein of A/Hong Kong/483/1997, expressed on cells (Influenza A virus A/Hong Kong/483/1997 (H5N1))"}}, "note": "Where “and” joins values, the source holds several entries; their conditions need not be identical. Equal values may be shown once.", "data": [{"molecule": "TCN-032 (8I10) (antibody)", "values": [{"measurement": "ELISA A450", "setting": "M2e", "result": 0.13}]}, {"molecule": "3241_G23 (antibody, V domains shown) VH: QVQLQQSGPGLVKPSQTLSLTCTVSGGPVSGGGYSWNWIRQRPGQGLEWVGFMFHSGSPRYNPTLKSRITISVDTSKNLVSLKLSSVTAADTAVYFCARVGQMDKYYAMDVWGQGTTVTVSS VL: DIQMTQSPSSLSSSVGDRVTITCRASQSIGAYVNWYQQKAGKAPQVLIFGASNLQSGVPSRFSGSGSGTDFTLTISSLQPEDFATYFCQQTYSTPITFGQGTRLEIK", "values": [{"measurement": "FACS M2-HK MFI", "setting": "[1]", "result": 1700, "unit": "MFI"}]}, {"molecule": "3244_H04 (antibody, V domains shown) VH: EVQLVESGGGLVQPGGSLRLSCTASGLSVSSTYMNWVRQAPGKGLEWVSVFYSETRTYYADSVKGRFTVSRHNSNNTLYLQMNSLRAEDTAVYYCARVQRLSYGMDVWGQGTTVTVSS VL: DIQMTQSPSSLSASVGDRVTITCRASQSISTYLNWYQKRPGKAPKLLVYGASSLQSGVPSRFSGSGSGTDFTLTIASLQPEDSAVYYCQQTYSIPLFGQGTRLEIK", "values": [{"measurement": "FACS M2-HK MFI", "setting": "[1]", "result": 963, "unit": "MFI"}]}, {"molecule": "TCN-032 (8I10) (antibody, V domains shown) VH: QVQLQESGPGLVKPSETLSLTCTVSGSSISNYYWSWIRQSPGKGLEWIGFIYYGGNTKYNPSLKSRVTISQDTSKSQVSLTMSSVTAAESAVYFCARASCSGGYCILDYWGQGTLVTVS VL: DIQMTQSPSSLSASVGDRVTITCRASQNIYKYLNWYQQRPGKAPKGLISAASGLQSGVPSRFSGSGSGTDFTLTITSLQPEDFATYYCQQSYSPPLTFGGGTRVEIK", "values": [{"measurement": "FACS M2-HK MFI", "setting": "[1]", "result": "754 MFI and 1080 MFI"}]}, {"molecule": "3136_G05 (antibody, V domains shown) VH: QVQLQESGPGLVKPSETLSLTCSVSGGSISSDFWSWIRQPPGKGLEWIGYVYNRGSTKYSPSLKSRVTISADMSKNQFSLNMSSVTAADTAVYYCAKNGRSSTSWGIDVWGKGTTVTVSS VL: DIQMTQSPSSLSASVGDRLTITCRASQSISTYLHWYQQKPGKAPKLLIYAASSLQSGVPSRFSGSRSGTDFTLTISSLQPDDFATYYCQQSYSPPLTFGPGTKVDMK", "values": [{"measurement": "FACS M2-HK MFI", "setting": "[1]", "result": 109, "unit": "MFI"}]}, {"molecule": "3252_C13 (antibody, V domains shown) VH: QVQLQESGPGLVKPSETLSLTCTVSGASISSDYWSWIRLPPGKGLEWIGYIYNRGSTKYTPSLKSRVTISLDTAENQFSLRLRSVTAADTAIYYCARHVGGHTYGIDYWGQGTLVTVSS VL: DIQMTQSPSSLSASVGDRVTITCRASQSISNYLNWYQHKPGEAPKLLNYAASSLQSGVPSRFSASGSGTDFTLTISSLQPEDFATYYCQQSYNTPITFGQGTRLEIK", "values": [{"measurement": "FACS M2-HK MFI", "setting": "[1]", "result": 449, "unit": "MFI"}]}, {"molecule": "3255_J06 (antibody, V domains shown) VH: QVQLQESGPGLVKPSETLSLTCTVSGASISSDYWSWIRLPPGKGLEWIGYIYNRGSTKYTPSLKSRVTISLDTAENQFSLRLRSVTAADTAVYYCARHVGGHTYGIDYWGQGTLVTVSS VL: DIQMTQSPSSLSASVGDRVTITCRASQSISNYLNWYQHKPGEAPKLLNYAASSLQSGVPSRFSASGSGTDFTLSISGLQPEDFATYYCQQSYNTPITFGPGTRLEIK", "values": [{"measurement": "FACS M2-HK MFI", "setting": "[1]", "result": 442, "unit": "MFI"}]}, {"molecule": "3420_I23 (antibody, V domains shown) VH: QVQLQESGPGLVKPSETLSVTCKVSGDSISSYSWSWIRQPPGKGLEWVGYLYYSGSTKYNPSLKSRTTISVDTSTNQLSLKLSFVTAADTAVYFCARTGSESTTGYGMDVWGQGTTVTVSS VL: DIQMTQSPSSLSASVGDRVTITCRASQSISTYLNWYQQKPGKAPKLLIYAASSLHSGVPSRFSGSGSGTDFALTISSLQPEDFATYYCQQSYSPPITFGQGTRLEIK", "values": [{"measurement": "FACS M2-HK MFI", "setting": "[1]", "result": 112, "unit": "MFI"}]}, {"molecule": "3139_P23 (antibody, V domains shown) VH: QVQLQESGPRLVKPSESLSLTCTVSGGSISNSFWGWIRQPPGEGLEWIGYVYNSGNTKYNPSLKSRVTISRDTSKSQLYMKLRSVTAADTAVYYCARHDDASHGYSISWGHGTLVTVSS VL: DIQMTQSPSSLSASVGDRVTITCRASQTISTYLNWYQQKSGKAPKLLIYAASGLQSGVPSRFSGSGSGTDFTLTISSLQPEDFATYFCQQSYNTPLTFGQGTKVEIK", "values": [{"measurement": "FACS M2-HK MFI", "setting": "[1]", "result": 110, "unit": "MFI"}]}, {"molecule": "3248_P18 (antibody, V domains shown) VH: QVQLQESGPGLVKPSETLSLTCTVSGGSISAYHWSWIRQPPGKGLEWIGHIFDSGSTYYNPSLKSRVTISLDASKNQLSLRLTSVTASDTAIYYCARPLGSRYYYGMDVWGQGTTVTVSS VL: DIQMTQSPSSLSASVGDRVTITCRASQSISRYLNWYQQKPGKAPKLLIYGASTLQNGAPSRFSGSGSGTDFTLTISSLQPEDSATYLCQQSYSVPAFGGGTKVEVK", "values": [{"measurement": "FACS M2-HK MFI", "setting": "[1]", "result": 967, "unit": "MFI"}]}, {"molecule": "3253_P10 (antibody, V domains shown) VH: QVQLQESGPGLLKPSDTLALTCTVSGGSITSDYWSWIRQPPGRGLDWIGFFYNGGSTKYNPSLKSRVTISADTSKNQLSLKLTSVTAADTGVYYCARHDAKFSGSYYVASWGQGTRVTVSS VL: DIQMTQSPSSLSASVGDRVTISCRASQSISTYLNWYQQQPGKAPKVLISGATDLQSGVPSRFSGSGSGTDFTLTISSLQPEDFATYYCQQSYNTPLIFGQGTKLEIK", "values": [{"measurement": "FACS M2-HK MFI", "setting": "[1]", "result": 43, "unit": "MFI"}]}, {"molecule": "3260_D19 (antibody, V domains shown) VH: DMQLVESGGGLVPPGGSLRLSCAASGFSVSDNYINWVRQAPGKGLDWVSVFYSADRTSYADSVKGRFTVSSHDSKNTVYLQMNSLRAEDTAVYYCARVQKSYYGMDVWGQGTTVTVSS VL: GIQMTQSPSSLSASVGDRVTITCRASQSISRYLNWYLQKPGKAPKLLISGASSLQSGVPSRFSGTGSGTEFTLTISSLQPEDFATYYCQQTFSIPLFGQGTKVEIK", "values": [{"measurement": "FACS M2-HK MFI", "setting": "[1]", "result": 846, "unit": "MFI"}]}, {"molecule": "3362_B11 (antibody, V domains shown) VH: QVQLQASGPGLVKPSETLSLTCTVSGDSITSGAYYWTWIRQHPGKGLEWIGYIYYSGNTYYNPSLKSRVTISLDTSKNQFSLKVNSVTAADTAVYYCARAASTSVLGYGMDVWGQGTTVTVSS VL: DIQMTQSPSSLSASVGDRVTITCRASQSISRYLNWYQQEPGKAPKLLVYAASSLQSGVPSRFSGSGSGTDFTLTISSLQPEDFATYYCQQSYSTPLTFGQGTRLEIK", "values": [{"measurement": "FACS M2-HK MFI", "setting": "[1]", "result": 218, "unit": "MFI"}]}, {"molecule": "3244_I10 (antibody, V domains shown) VH: QVQLQESGPGLLKPSDTLALTCTVSGGSITSDYWSWIRQPPGRGLDWIGFFYNGGSTKYNPSLKSRVTISADTSKNQLSLKLTSVTAADTGVYYCARHDAKFSGSYYVASWGQGTRVTVSS VL: DIQMTQSPSSLSASVGDRVTISCRASQSISTYLNWYQQQPGKAPKVLIFGATNLQSGVPSRFSGSGSGTDFTLTISSLQPEDFATYYCQQSYNTPLIFGQGTKLEIK", "values": [{"measurement": "FACS M2-HK MFI", "setting": "[1]", "result": 434, "unit": "MFI"}]}, {"molecule": "3242_P05 (antibody, V domains shown) VH: DMQLVESGGGLVPPGGSLRLSCAASGFSVSDNYINWVRQAPGKGLDWVSVFYSADRTSYADSVKGRFTVSSHDSKNTVYLQMNSLRAEDTAVYYCARVQKSYYGMDVWGQGTTVTVSS VL: GIQMTQSPSSLSASVGDRVTITCRASQSISRYLNWYLQKPGKAPKLLISGASSLQSGVPSRFSGTGSGTEFTLTISSLQPEDFATYYCQQTFSIPLFGQGTKVEIK", "values": [{"measurement": "FACS M2-HK MFI", "setting": "[1]", "result": 596, "unit": "MFI"}]}, {"molecule": "3243_J07 (antibody, V domains shown) VH: QVQLQESGPGLLKPSDTLALTCTVSGGSITSDYWSWIRQPPGRGLDWIGFFYNGGSTKYNPSLKSRVTISADTSKNQLSLKLTSVTAADTGVYYCARHDVKFSGSYYVASWGQGTRVTVSS VL: DIQMTQSPSSLSASVGDRVTISCRASQSISTYLNWYQQQPGKAPKVLISGATNLQSGVPSRFSGSGSGTDFTLTISSLQPEDFATYYCQQSYNTPLIFGQGTKLEIK", "values": [{"measurement": "FACS M2-HK MFI", "setting": "[1]", "result": 131, "unit": "MFI"}]}, {"molecule": "3259_J21 (antibody, V domains shown) VH: QVQLQESGPRVVRPSETLSLTCTVSGGSISSYNWIWIRQPPGKGLEWIGHIYDYGRTFYNSSLQSRPTISVDASKNQLSLRLTSVTASDTAVYYCARPLGILHYYAMDLWGQGTTVTVSS VL: DIQMTQSPLSVSVSVGDRVTIACRASQSIDKFLNWYQQKPGKAPKLLIYGASNLHSGAPSRFSASGSGTDFTLTITNIQTEDFATYLCQQSFSVPAFGGGTKVEIK", "values": [{"measurement": "FACS M2-HK MFI", "setting": "[1]", "result": 1670, "unit": "MFI"}]}, {"molecule": "3245_O19 (antibody, V domains shown) VH: EVQLVESGGGLVQPGGSLRLSCTASGLSVSSTYMNWVRQAPGKGLEWVSVFYSETRTYYADSVKGRFTVSRHNSNNTLYLQMNSLRVEDTAVYYCARVQRLSYGMDVWGQGTTVTVSS VL: DIQMTQSPSSLSASVGDRVTITCRASQSISTYLNWYQKRPGKAPKLLVYGASTLQSGVPSRFSGSGSGTDFTLTIASLQPEDSATYYCQQTYSIPLFGQGTRLEIK", "values": [{"measurement": "FACS M2-HK MFI", "setting": "[1]", "result": 919, "unit": "MFI"}]}]}
